Assay results from paper PMC2644375.

Assays:
Cul1 (CFP)–Rbx1 (human) = Cul1 (CFP)–Rbx1 (human) (UniProt Q13616); experiment: FRET or BRET
[1] = target: Nedd8 Cul1 (CFP)–Rbx1 (quantitatively neddylated) (UniProt Q13616); experiment: FRET or BRET
[2] = target: SCF^Skp2 (unmodified) (human), Q13616

Kd (Cul1 (CFP)–Rbx1 (human)) | fold lowering of Kd against unmodified Cul1 (CFP)–Rbx1 [1] | Km for Cdc34 in ubiquitination of p27-Cdk2-CycE (multi-turnover, varying Cdc34) [2] | Molecule
82 nM | 3 fold | – | LG-labeled Cdc34 (from UniProt P49427 1-236) (enzyme)
– | – | 6.1 µM | Cdc34, P49427 1-236 (enzyme) MARPLVPSSQKALLLELKGLQEEPVEGFRVTLVDEGDLYNWEVAIFGPPNTYYEGGYFKARLKFPIDYPYSPPAFRFLTKMWHPNIYETGDVCISILHPPVDDPQSGELPSERWNPTQNVRTILLSVISLLNEPNTFSPANVDASVMYRKWKESKGKDREYTDIIRKQVLGTKVDAERDGVKVPTTLAEYCVKTKAPAPDEGSDLFYDDYYEDGEVEEEADSCFGDDEDDSGTEES
